Reference: PMC5297723

Molecular target: recombinant CMG2-Fc-Apo (rCMG2-Fc-Apo) protein (human) (UniProt P58335)
Experiment: non-reducing SDS-PAGE

recombinant CMG2-Fc-Apo (rCMG2-Fc-Apo) protein (from UniProt P58335 34-318) (Fc fusion)
stoichiometry N: 2
